The source of these data is publication PMC4535357.

This series addresses T1, SRSF2 (UniProt Q01130 1-221).
T1 sequence: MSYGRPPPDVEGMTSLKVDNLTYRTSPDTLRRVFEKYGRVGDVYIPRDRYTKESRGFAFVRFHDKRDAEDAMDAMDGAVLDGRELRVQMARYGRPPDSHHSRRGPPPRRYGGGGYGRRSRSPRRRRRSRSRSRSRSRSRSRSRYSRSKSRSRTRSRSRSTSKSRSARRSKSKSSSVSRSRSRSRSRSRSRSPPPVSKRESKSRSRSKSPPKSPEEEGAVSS
Briefly: EMSA. On the technique in general: Mobility shift assays separate free from complexed probe on a gel.

Turning to GCACGUAUUC (ssRNA) [Mut-SRSF2 RNA (CGUA)], the binding result is listed as “no binding”.
